B1: Abl P82-K531: mutant lacking the last exon region and the N-terminal amino acids preceding the SH3 domain (protein, UniProt P00519 82-531, looked up, fragment)
chain: ITKGEKLRVLGYNHNGEWCEAQTKNGQGWVPSNYITPVNSLEKHSWYHGPVSRNAAEYLLSSGINGSFLVRESESSPGQRSISLRYEGRVYHYRINTASDGKLYVSSESRFNTLAELVHHHSTVADGLITTLHYPAPKRNKPTVYGVSPNYDKWEMERTDITMKHKLGGGQYGEVYEGVWKKYSLTVAVKTLKEDTMEVEEFLKEAAVMKEIKHPNLVQLLGVCTREPPFYIITEFMTYGNLLDYLRECNRQEVNAVVLLYMATQISSAMEYLEKKNFIHRDLAARNCLVGENHLVKVADFGLSRLMTGDTYTAHAGAKFPIKWTAPESLAYNKFSIKSDVWAFGVLLWEIATYGMSPYPGIDLSQVYELLEKDYRMERPEGCPEKVYELMRACWQWNPSDRPSFAEIHQAFETMFQESSISDEVEKELGKQGVRGAVSTLLQAPELPTK
modifications: isoform 1B
notes: mutant lacking the last exon region and the N-terminal amino acids preceding the SH3 domain

System: GST-Jun
Experiment: Abl in vitro kinase assay of immunoprecipitated Abl proteins, GST-Jun as substrate
Assay type: biochemical
Details: expressed in HEK293 cells, relative to Abl M1-K531
Protocol: C. Abl protein was immunoprecipitated from total cell extract using anti-Abl antibodies, blotted to nitrocellulose and probed with anti-Abl and anti-phosphotyrosine antibodies (left panels). Abl immunoprecipitates were assayed for catalytic activity by in vitro kinase assay using GST-Jun as substrate.
The catalytic activity of purified Abl protein bound to protein G-Sepharose beads was determined as follows. Beads were washed three times with IP buffer, two times with IP buffer without NaCl and two times with kinase assay buffer (20 mM Tris-HCl pH 7.5, 10 mM MgCl2, 1 mM DTT). Twenty μl linase assay mix (1 μg GST-Crk121-226 (Dorey et al., 1999), 0.5 μl [γ-^32P]-ATP (Amersham), 0.1 mM ATP in kinase assay buffer) was added and the mixture was incubated at room temperature for 10 and 20 minutes. The kinase reaction was stopped by adding SDS-sample buffer and analyzed by SDS-PAGE. Quantification of the reaction was done by cutting the desired bands from gel followed by liquid scintillation counting and/or phosphoimager analysis. For the in vitro inhibition of Abl, GST or GST 1b+2 protein were bacterially expressed, purified and dialysed against kinase assay buffer. Equal quantities of purified proteins were added directly to the kinase assay mixture, samples were incubated for 2 hours at 4° C. and then assayed as above.

| Molecule | Catalytic activity and tyrosine phosphorylation (in words) |
| --- | --- |
| Abl M1-K531: deletion mutant lacking the last exon region of c-Abl | did not lead to activation |
| B1 | highly active in vitro |

From US20050065081A1, “Tyrosine kinase inhibitors” (priority 2002, published 2005)
